We go through 6 molecules from patent publication US20210388118A1 (ZHEJIANG SHIMAI PHARMACEUTICAL, published 2021).

In assay [1] the target is T1, recombinant human EGFR (human, UniProt P00533 25-645).
T1 construct: Bought protein; construct not described; also called hEGFR
Briefly: ELISA, recombinant human EGFR coated, Fab. As to the method: (§1) ELISA was performed according to standard protocols. Briefly, recombinant human or cynomolgus EGFR was coated on Corning EIA/RIA high-binding 96-well plates (Corning Inc.) at 50 ng per well overnight at 4° C. and blocked with 3% nonfat milk in PBS (pH7.4). Fivefold serially diluted antibodies were added and incubated at room temperature for 2 hours. The plates were washed with PBS containing 0.05% Tween 20. Bound Fab and IgG1s were detected by HRP-conjugated anti-FLAG tag antibody and HRP-conjugated anti-human IgG (Fc-specific) antibody, respectively. The assay was developed at room temperature with TMB substrate (Sigma-Aldrich) and monitored at 450 nm with a microplate reader. The half-maximal binding (EC₅₀) was calculated by fitting the data to the Langmuir adsorption isotherm.
Background: In an ELISA, binding on a coated surface is turned into a signal by an enzyme label.

Assay [2] deals with T2, human EGFR on cells (HCT116, A549, A431, HT29) (human, UniProt P00533 25-1210).
T2 construct: whole, on cells; also called cell surface EGFR; cell-surface EGFR
In words: flow cytometry on A549 cells, Fab at 100 nM. As to the method: To measure the binding of SMET5 Fab to cell surface EGFR, about 5×10⁵ cells were incubated with 100 nM antibody on ice for 1 h. The cells were washed once with PBS containing 0.1% bovine serum albumin (PBSA) and resuspended in 200 μl PBSA. Then 5 μl anti-His-PE conjugate was added and incubated for 30 min. The cells were washed once with PBSA and then used for flow cytometry analysis.
(In flow cytometry, cells or beads pass a laser one at a time.)

For assay [3], the target named is T1, recombinant human EGFR. Briefly: ELISA, recombinant EGFR coated. As to the method: as §1
Assay [4] addresses T2, human EGFR on cells (HCT116, A549, …). Briefly: flow cytometry on A549 cells, 2 µg/mL. As to the method: To measure the binding of IgG1 s of SMET5 variants to cell surface EGFR, about 5×10⁵ cells were incubated with 2 μg mL⁻¹ antibodies on ice for 1 h. The cells were washed once with PBSA and resuspended in 200 μl PBSA. Then 5 μ1 goat F(ab′)2 anti-human IgG (γ)-FITC conjugate was added and incubated for 30 min. The cells were washed once with PBSA and then used for flow cytometry analysis.

The target of assay [5] is T1, recombinant human EGFR. In words: ELISA, recombinant human EGFR coated. As to the method:
as §1

The target in assay [6] is T3, recombinant cynomolgus EGFR (cynomolgus, UniProt A0A2K5WK39 25-645).
T3 construct: Bought protein; construct not described
In words: ELISA, recombinant cynomolgus EGFR coated. As to the method: as §1

Usually EC50 stands for the concentration needed to bring the measured effect to its halfway point.

B1: SMET5 Fab (Fab, V domains shown)
VH: EVQLVETGGGVVQPGRSLRLSCAASGFTFSSYAMHWVRQAPGKGLEWVAVISYDGSNKYYADSVKGRFTISRDNSKNTLYLQMNSLRAEDTAVYYCARGYVARGDFDYWGQGTLVTVSS
VL: DIQMTQSPSTLSASVGDRVTITCRASQTVDSWLAWYQQKPGKAPKLLIYATSSLQSGVPSRFSGSGSGTDFTLTISSLQPEDFATYYCQQGHIAPHTFGQGTTLEIK
notes: Human Fab from a phage library, expressed in E. coli, His-tagged and detected by anti-FLAG; also called SMETS
Consider B1, for which the binding result (with recombinant human EGFR [1]; in assay [2]) was “binds” each time.

B2: SMET5 IgG1 (antibody, V domains shown)
VH: EVQLVETGGGVVQPGRSLRLSCAASGFTFSSYAMHWVRQAPGKGLEWVAVISYDGSNKYYADSVKGRFTISRDNSKNTLYLQMNSLRAEDTAVYYCARGYVARGDFDYWGQGTLVTVSS
VL: DIQMTQSPSTLSASVGDRVTITCRASQTVDSWLAWYQQKPGKAPKLLIYATSSLQSGVPSRFSGSGSGTDFTLTISSLQPEDFATYYCQQGHIAPHTFGQGTTLEIKR
notes: Human IgG1 from 293FS cells; also called SMETS IgG1
Turning to B2, the binding result (with recombinant human EGFR [3]; in assay [4]) was “binds” throughout.

B3: SMET5.3 IgG1 (antibody, V domains shown)
VH: EVQLVETGGGVVQPGRSLRLSCAASGFTFSSYAMHWVRQAPGKGLEWVAVISYDGSNKYYADSVKGRFTISRDNSKNTLYLQMNSLRAEDTAVYYCARGYVARGDFDYWGQGTLVTVSS
VL: DIQLTQSPSTLSASVGDRVTITCRSNQTADSWLAWYQQKPGKAPNLLIYAASNLQSGVPSRFSGSGSGTDFTLTISSLQPEDFATYYCQQSYSTPFMFTFGQGTKLEIKR
notes: Human IgG1 from 293FS cells
With B3, the binding result (in the assay with recombinant human EGFR [3]; in assay [4]) was “binds” each time.

B4: SMET5.3 Fab (Fab, V domains shown)
VH: EVQLVETGGGVVQPGRSLRLSCAASGFTFSSYAMHWVRQAPGKGLEWVAVISYDGSNKYYADSVKGRFTISRDNSKNTLYLQMNSLRAEDTAVYYCARGYVARGDFDYWGQGTLVTVSS
VL: DIQLTQSPSTLSASVGDRVTITCRSNQTADSWLAWYQQKPGKAPNLLIYAASNLQSGVPSRFSGSGSGTDFTLTISSLQPEDFATYYCQQSYSTPFMFTFGQGTKLEIK
notes: His-tagged Fab
Regarding B4, in the assay with recombinant human EGFR [1], the binding result is listed as “binds”.

B5: SMET5.4 Fab (Fab, V domains shown)
VH: EVQLVETGGGVVQPGRSLRLSCAASGFTFSSYAMHWVRQAPGKGLEWVAVISYDGSNKYYADSVKGRFTISRDNSKNTLYLQMNSLRAEDTAVYYCARGYVARGDFDYWGQGTLVTVSS
VL: DIQLTQSPSSVSASVGDRVTITCRASQGISSWLAWYQQKPGKAPKLLIYAASALQSGVPSRFSGSGSGTEFTLTIYDLQPDDFATYFCQQYDTFLWTFGQGTKVEIK
notes: His-tagged Fab
As for B5, the binding result with recombinant human EGFR [1] is “binds”.

B6: SMET5.2 IgG1 (antibody, V domains shown)
VH: EVQLVETGGGVVQPGRSLRLSCAASGFTFSSYAMHWVRQAPGKGLEWVAVISYDGSNKYYADSVKGRFTISRDNSKNTLYLQMNSLRAEDTAVYYCARGYVARGDFDYWGQGTLVTVSS
VL: DVVMTQSPSTLSASVGDRVTITCRASQSMSRWLAWYQQKPGKGPKLLIYATSTLQSGVPSRFSGSGSGTEFTLTISSLQPEDFATYYCQQLDSFPFSFTFGPGTKVDLKR
notes: Human IgG1 from 293FS cells
As to B6, the results for the EC50 (with recombinant human EGFR [5]; in assay [6]) were 1.4 nM and 0.76 nM, respectively.
